Results published in publication PMC8571288.

What was measured:
[1] = biological target: CST complex (CTC1-STN1-TEN1) (Homo sapiens) (UniProt Q2NKJ3+Q9H668+Q86WV5); assay: smFRET; conditions: smFRET: 25 mM Tris-HCl pH 7.5, 0.5 mM EDTA, 10% glycerol, 50 or 150 mM KCl (temperature not stated), pull-down: 35 mM Tris-HCl pH 7.5, 10% glycerol, 0.01% …
[2] = biological target: RPA complex (Homo sapiens) (UniProt P27694+P15927+P35244); assay: smFRET; conditions: smFRET: 25 mM Tris-HCl pH 7.5, 0.5 mM EDTA, 10% glycerol, 50 or 150 mM KCl (temperature not stated), pull-down: 35 mM Tris-HCl pH 7.5, 10% glycerol, 0.01% …
Chain of RPA complex (Homo sapiens) (P27694 whole entry, chain 1 of 3): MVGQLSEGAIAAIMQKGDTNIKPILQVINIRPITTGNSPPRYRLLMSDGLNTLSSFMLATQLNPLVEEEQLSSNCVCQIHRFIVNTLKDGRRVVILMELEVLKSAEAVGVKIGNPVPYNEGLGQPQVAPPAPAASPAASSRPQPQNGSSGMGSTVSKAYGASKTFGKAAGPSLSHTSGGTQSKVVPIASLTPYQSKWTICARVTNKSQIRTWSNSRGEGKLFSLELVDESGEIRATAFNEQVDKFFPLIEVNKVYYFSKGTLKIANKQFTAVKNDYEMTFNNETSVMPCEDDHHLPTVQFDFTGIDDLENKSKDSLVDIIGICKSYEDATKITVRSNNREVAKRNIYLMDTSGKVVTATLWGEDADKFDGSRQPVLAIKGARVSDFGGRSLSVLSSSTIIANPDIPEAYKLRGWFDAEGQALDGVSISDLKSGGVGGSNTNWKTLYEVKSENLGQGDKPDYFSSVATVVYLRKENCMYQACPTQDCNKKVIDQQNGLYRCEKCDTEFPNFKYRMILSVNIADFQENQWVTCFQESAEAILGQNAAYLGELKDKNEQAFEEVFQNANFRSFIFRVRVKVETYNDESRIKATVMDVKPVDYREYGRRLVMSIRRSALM
Chain of RPA complex (Homo sapiens) (P15927 whole entry, chain 2 of 3): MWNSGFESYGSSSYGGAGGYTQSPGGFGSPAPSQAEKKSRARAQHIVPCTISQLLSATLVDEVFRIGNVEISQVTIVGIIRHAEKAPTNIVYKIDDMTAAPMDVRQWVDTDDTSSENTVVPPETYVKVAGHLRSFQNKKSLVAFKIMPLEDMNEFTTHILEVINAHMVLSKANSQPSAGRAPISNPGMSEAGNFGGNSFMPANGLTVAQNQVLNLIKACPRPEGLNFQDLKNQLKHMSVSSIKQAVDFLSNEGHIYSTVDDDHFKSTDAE
Chain of RPA complex (Homo sapiens) (P35244 whole entry, chain 3 of 3): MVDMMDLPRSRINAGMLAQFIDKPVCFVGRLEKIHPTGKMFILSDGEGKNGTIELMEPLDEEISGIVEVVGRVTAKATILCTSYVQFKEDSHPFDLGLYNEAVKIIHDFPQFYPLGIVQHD

Chain of CST complex (CTC1-STN1-TEN1) (Homo sapiens) (Q2NKJ3 whole entry, chain 1 of 3): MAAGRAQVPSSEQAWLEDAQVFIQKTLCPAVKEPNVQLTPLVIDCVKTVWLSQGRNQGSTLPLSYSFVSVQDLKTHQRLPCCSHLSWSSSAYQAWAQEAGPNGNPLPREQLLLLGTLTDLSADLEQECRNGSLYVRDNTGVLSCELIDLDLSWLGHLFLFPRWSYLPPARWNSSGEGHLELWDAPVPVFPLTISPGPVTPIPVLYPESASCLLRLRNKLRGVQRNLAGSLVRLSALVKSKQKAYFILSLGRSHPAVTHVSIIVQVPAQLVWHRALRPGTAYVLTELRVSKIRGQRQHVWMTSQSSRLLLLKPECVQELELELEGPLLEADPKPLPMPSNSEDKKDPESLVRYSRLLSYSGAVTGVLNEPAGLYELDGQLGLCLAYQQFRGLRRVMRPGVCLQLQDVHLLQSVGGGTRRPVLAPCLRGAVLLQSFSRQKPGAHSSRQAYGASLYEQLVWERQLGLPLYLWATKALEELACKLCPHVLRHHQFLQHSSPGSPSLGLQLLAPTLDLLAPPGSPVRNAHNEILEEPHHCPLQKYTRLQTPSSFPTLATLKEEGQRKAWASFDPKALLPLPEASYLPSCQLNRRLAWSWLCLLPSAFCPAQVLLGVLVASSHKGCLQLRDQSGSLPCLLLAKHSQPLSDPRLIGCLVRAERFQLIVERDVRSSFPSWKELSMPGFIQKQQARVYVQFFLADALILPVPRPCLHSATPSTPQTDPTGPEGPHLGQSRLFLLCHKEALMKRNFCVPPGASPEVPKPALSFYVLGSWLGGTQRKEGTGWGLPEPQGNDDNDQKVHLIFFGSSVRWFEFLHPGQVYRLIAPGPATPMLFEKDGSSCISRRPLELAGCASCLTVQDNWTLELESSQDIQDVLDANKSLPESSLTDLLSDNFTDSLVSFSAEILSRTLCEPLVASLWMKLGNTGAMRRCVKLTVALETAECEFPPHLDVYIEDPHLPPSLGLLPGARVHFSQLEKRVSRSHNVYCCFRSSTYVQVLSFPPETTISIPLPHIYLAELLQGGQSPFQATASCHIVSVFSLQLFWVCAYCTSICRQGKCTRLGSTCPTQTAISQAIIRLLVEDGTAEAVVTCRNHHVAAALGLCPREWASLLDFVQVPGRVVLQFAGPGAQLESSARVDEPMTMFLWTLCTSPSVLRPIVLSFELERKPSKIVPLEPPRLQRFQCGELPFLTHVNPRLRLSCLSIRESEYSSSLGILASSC
Chain of CST complex (CTC1-STN1-TEN1) (Homo sapiens) (Q9H668 whole entry, chain 2 of 3): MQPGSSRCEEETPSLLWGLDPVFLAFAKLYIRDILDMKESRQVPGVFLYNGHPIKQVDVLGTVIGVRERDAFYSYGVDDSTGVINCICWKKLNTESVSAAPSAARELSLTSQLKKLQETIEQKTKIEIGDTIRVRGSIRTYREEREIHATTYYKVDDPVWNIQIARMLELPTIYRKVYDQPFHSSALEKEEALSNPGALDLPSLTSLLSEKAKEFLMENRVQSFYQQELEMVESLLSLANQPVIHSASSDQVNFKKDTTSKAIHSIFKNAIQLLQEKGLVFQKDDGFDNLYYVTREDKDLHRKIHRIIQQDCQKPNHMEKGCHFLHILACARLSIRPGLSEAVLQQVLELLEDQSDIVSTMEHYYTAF
Chain of CST complex (CTC1-STN1-TEN1) (Homo sapiens) (Q86WV5 whole entry, chain 3 of 3): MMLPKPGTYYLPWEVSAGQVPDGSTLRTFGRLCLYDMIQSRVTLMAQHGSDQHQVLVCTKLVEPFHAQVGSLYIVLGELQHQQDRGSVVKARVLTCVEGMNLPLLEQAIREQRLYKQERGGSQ

ACGCTGCCGAATTCTACCAGTGCCTTGCTAGGACATCTTTGCCCACCTGCAGGTTCACCC / GGGTGAACCTGCAGGTGGGCAAAGA [35-nt ssDNA overhang (Oligo 5+6)]
Kd ([1]; 50 mM KCl, Hill slope 2.74): 0.12 nM | Kd ([1]; 150 mM KCl, Hill slope 1.4): 0.29 nM | Kd ([2]; 50 mM KCl, Hill slope 3.14): 0.12 nM | Kd ([2]; 150 mM KCl, Hill slope 2.83): 0.11 nM
